Experiments:
[1] = molecular target: T1, human protoporphyrinogen IX oxidase (hPPO) (Homo sapiens, UniProt P50336); test: fluorescence product-formation time courses showing feedback (product) inhibition; type: biochemical
T1 construct: gene PPOX
T1 sequence (P50336 1-477): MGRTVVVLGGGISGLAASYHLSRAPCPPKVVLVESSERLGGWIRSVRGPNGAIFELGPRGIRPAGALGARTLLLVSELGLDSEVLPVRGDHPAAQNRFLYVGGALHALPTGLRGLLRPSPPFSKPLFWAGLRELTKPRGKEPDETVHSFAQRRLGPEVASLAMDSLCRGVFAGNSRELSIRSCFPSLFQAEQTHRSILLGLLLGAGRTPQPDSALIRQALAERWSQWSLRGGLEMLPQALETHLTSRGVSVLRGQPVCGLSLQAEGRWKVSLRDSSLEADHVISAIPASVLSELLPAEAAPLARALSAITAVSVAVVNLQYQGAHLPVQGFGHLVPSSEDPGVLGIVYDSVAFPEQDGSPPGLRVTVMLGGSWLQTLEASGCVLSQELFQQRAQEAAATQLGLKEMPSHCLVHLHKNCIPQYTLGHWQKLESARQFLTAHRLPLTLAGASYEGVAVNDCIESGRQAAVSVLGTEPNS

purified protein = substrate: C=Cc1c2[nH]c(c1C)Cc1[nH]c(c(CCC(=O)O)c1C)Cc1[nH]c(c(C)c1CCC(=O)O)Cc1[nH]c(c(C)c1C=C)C2; test: purified protein
[2] = substrate: C=Cc1c2[nH]c(c1C)Cc1[nH]c(c(CCC(=O)O)c1C)Cc1[nH]c(c(C)c1CCC(=O)O)Cc1[nH]c(c(C)c1C=C)C2; test: continuous fluorometric enzyme kinetics on purified hPPO (Km); type: biochemical, Homo sapiens; conditions: FAD active site next to FAD; model: R97, L166, R168, G169, V170, F331, L334, M368

For `C=CC1=C(C)c2cc3[nH]c(cc4nc(cc5[nH]c(cc1n2)c(C)c5CCC(=O)O)C(CCC(=O)O)=C4C)c(C)c3C=C` [protoporphyrin IX], the “fluorescence product-formation time courses showing feedback (product) inhibitio” value [1] was “The product inhibition phenomenon was obvious at low concentrations of PPO”.

B1: human protoporphyrinogen IX oxidase (hPPO) (Homo sapiens; L166N) (protein)
chain: MGRTVVVLGGGISGLAASYHLSRAPCPPKVVLVESSERLGGWIRSVRGPNGAIFELGPRGIRPAGALGARTLLLVSELGLDSEVLPVRGDHPAAQNRFLYVGGALHALPTGLRGLLRPSPPFSKPLFWAGLRELTKPRGKEPDETVHSFAQRRLGPEVASLAMDSNCRGVFAGNSRELSIRSCFPSLFQAEQTHRSILLGLLLGAGRTPQPDSALIRQALAERWSQWSLRGGLEMLPQALETHLTSRGVSVLRGQPVCGLSLQAEGRWKVSLRDSSLEADHVISAIPASVLSELLPAEAAPLARALSAITAVSVAVVNLQYQGAHLPVQGFGHLVPSSEDPGVLGIVYDSVAFPEQDGSPPGLRVTVMLGGSWLQTLEASGCVLSQELFQQRAQEAAATQLGLKEMPSHCLVHLHKNCIPQYTLGHWQKLESARQFLTAHRLPLTLAGASYEGVAVNDCIESGRQAAVSVLGTEPNS
B1 gave a Km (purified protein; FAD substrate ring C) of 5.13 µM, a kcat (purified protein; FAD substrate ring C) of 0.0303 ± 0.00217 s⁻¹ and a kcat/Km (purified protein; FAD substrate ring C) of 5830 M⁻¹ s⁻¹.

B2: human protoporphyrinogen IX oxidase (hPPO) (Homo sapiens; R168S) (protein)
chain: MGRTVVVLGGGISGLAASYHLSRAPCPPKVVLVESSERLGGWIRSVRGPNGAIFELGPRGIRPAGALGARTLLLVSELGLDSEVLPVRGDHPAAQNRFLYVGGALHALPTGLRGLLRPSPPFSKPLFWAGLRELTKPRGKEPDETVHSFAQRRLGPEVASLAMDSLCSGVFAGNSRELSIRSCFPSLFQAEQTHRSILLGLLLGAGRTPQPDSALIRQALAERWSQWSLRGGLEMLPQALETHLTSRGVSVLRGQPVCGLSLQAEGRWKVSLRDSSLEADHVISAIPASVLSELLPAEAAPLARALSAITAVSVAVVNLQYQGAHLPVQGFGHLVPSSEDPGVLGIVYDSVAFPEQDGSPPGLRVTVMLGGSWLQTLEASGCVLSQELFQQRAQEAAATQLGLKEMPSHCLVHLHKNCIPQYTLGHWQKLESARQFLTAHRLPLTLAGASYEGVAVNDCIESGRQAAVSVLGTEPNS
B2 was tested, and the Km (purified protein; FAD substrate ring A) was 11.33 µM, the kcat (purified protein; FAD substrate ring A) was 0.0553 ± 0.00367 s⁻¹ and the kcat/Km (purified protein; FAD substrate ring A) was 4830 M⁻¹ s⁻¹.

B3: human protoporphyrinogen IX oxidase (hPPO) (Homo sapiens; G169A) (protein)
chain: MGRTVVVLGGGISGLAASYHLSRAPCPPKVVLVESSERLGGWIRSVRGPNGAIFELGPRGIRPAGALGARTLLLVSELGLDSEVLPVRGDHPAAQNRFLYVGGALHALPTGLRGLLRPSPPFSKPLFWAGLRELTKPRGKEPDETVHSFAQRRLGPEVASLAMDSLCRAVFAGNSRELSIRSCFPSLFQAEQTHRSILLGLLLGAGRTPQPDSALIRQALAERWSQWSLRGGLEMLPQALETHLTSRGVSVLRGQPVCGLSLQAEGRWKVSLRDSSLEADHVISAIPASVLSELLPAEAAPLARALSAITAVSVAVVNLQYQGAHLPVQGFGHLVPSSEDPGVLGIVYDSVAFPEQDGSPPGLRVTVMLGGSWLQTLEASGCVLSQELFQQRAQEAAATQLGLKEMPSHCLVHLHKNCIPQYTLGHWQKLESARQFLTAHRLPLTLAGASYEGVAVNDCIESGRQAAVSVLGTEPNS
With B3 the Km (purified protein; FAD substrate ring C) was 2.16 µM, the kcat (purified protein; FAD substrate ring C) was 0.00617 ± 0.000667 s⁻¹ and the kcat/Km (purified protein; FAD substrate ring C) was 2830 M⁻¹ s⁻¹.

B4: human protoporphyrinogen IX oxidase (hPPO) (Homo sapiens; V170T) (protein)
chain: MGRTVVVLGGGISGLAASYHLSRAPCPPKVVLVESSERLGGWIRSVRGPNGAIFELGPRGIRPAGALGARTLLLVSELGLDSEVLPVRGDHPAAQNRFLYVGGALHALPTGLRGLLRPSPPFSKPLFWAGLRELTKPRGKEPDETVHSFAQRRLGPEVASLAMDSLCRGTFAGNSRELSIRSCFPSLFQAEQTHRSILLGLLLGAGRTPQPDSALIRQALAERWSQWSLRGGLEMLPQALETHLTSRGVSVLRGQPVCGLSLQAEGRWKVSLRDSSLEADHVISAIPASVLSELLPAEAAPLARALSAITAVSVAVVNLQYQGAHLPVQGFGHLVPSSEDPGVLGIVYDSVAFPEQDGSPPGLRVTVMLGGSWLQTLEASGCVLSQELFQQRAQEAAATQLGLKEMPSHCLVHLHKNCIPQYTLGHWQKLESARQFLTAHRLPLTLAGASYEGVAVNDCIESGRQAAVSVLGTEPNS
Molecule B4 has a Km (purified protein; FAD substrate ring B) of 2.97 µM, a kcat (purified protein; FAD substrate ring B) of 0.128 ± 0.011 s⁻¹ and a kcat/Km (purified protein; FAD substrate ring B) of 43200 M⁻¹ s⁻¹.

B5: human protoporphyrinogen IX oxidase (hPPO) (Homo sapiens; L334V) (protein)
chain: MGRTVVVLGGGISGLAASYHLSRAPCPPKVVLVESSERLGGWIRSVRGPNGAIFELGPRGIRPAGALGARTLLLVSELGLDSEVLPVRGDHPAAQNRFLYVGGALHALPTGLRGLLRPSPPFSKPLFWAGLRELTKPRGKEPDETVHSFAQRRLGPEVASLAMDSLCRGVFAGNSRELSIRSCFPSLFQAEQTHRSILLGLLLGAGRTPQPDSALIRQALAERWSQWSLRGGLEMLPQALETHLTSRGVSVLRGQPVCGLSLQAEGRWKVSLRDSSLEADHVISAIPASVLSELLPAEAAPLARALSAITAVSVAVVNLQYQGAHLPVQGFGHVVPSSEDPGVLGIVYDSVAFPEQDGSPPGLRVTVMLGGSWLQTLEASGCVLSQELFQQRAQEAAATQLGLKEMPSHCLVHLHKNCIPQYTLGHWQKLESARQFLTAHRLPLTLAGASYEGVAVNDCIESGRQAAVSVLGTEPNS
B5 showed a Km (purified protein; FAD substrate ring D) of 7.08 µM, a kcat (purified protein; FAD substrate ring D) of 0.853 ± 0.103 s⁻¹ and a kcat/Km (purified protein; FAD substrate ring D) of 120000 M⁻¹ s⁻¹.

B6: human protoporphyrinogen IX oxidase (hPPO) (Homo sapiens) (protein)
chain: MGRTVVVLGGGISGLAASYHLSRAPCPPKVVLVESSERLGGWIRSVRGPNGAIFELGPRGIRPAGALGARTLLLVSELGLDSEVLPVRGDHPAAQNRFLYVGGALHALPTGLRGLLRPSPPFSKPLFWAGLRELTKPRGKEPDETVHSFAQRRLGPEVASLAMDSLCRGVFAGNSRELSIRSCFPSLFQAEQTHRSILLGLLLGAGRTPQPDSALIRQALAERWSQWSLRGGLEMLPQALETHLTSRGVSVLRGQPVCGLSLQAEGRWKVSLRDSSLEADHVISAIPASVLSELLPAEAAPLARALSAITAVSVAVVNLQYQGAHLPVQGFGHLVPSSEDPGVLGIVYDSVAFPEQDGSPPGLRVTVMLGGSWLQTLEASGCVLSQELFQQRAQEAAATQLGLKEMPSHCLVHLHKNCIPQYTLGHWQKLESARQFLTAHRLPLTLAGASYEGVAVNDCIESGRQAAVSVLGTEPNS
Work on B6 yielded a Km [2] of 2.08 µM, a kcat [2] of 0.0495 ± 0.0025 s⁻¹ and a kcat/Km [2] of 23800 M⁻¹ s⁻¹.

B7: human protoporphyrinogen IX oxidase (hPPO) (Homo sapiens; M368K) (protein)
chain: MGRTVVVLGGGISGLAASYHLSRAPCPPKVVLVESSERLGGWIRSVRGPNGAIFELGPRGIRPAGALGARTLLLVSELGLDSEVLPVRGDHPAAQNRFLYVGGALHALPTGLRGLLRPSPPFSKPLFWAGLRELTKPRGKEPDETVHSFAQRRLGPEVASLAMDSLCRGVFAGNSRELSIRSCFPSLFQAEQTHRSILLGLLLGAGRTPQPDSALIRQALAERWSQWSLRGGLEMLPQALETHLTSRGVSVLRGQPVCGLSLQAEGRWKVSLRDSSLEADHVISAIPASVLSELLPAEAAPLARALSAITAVSVAVVNLQYQGAHLPVQGFGHLVPSSEDPGVLGIVYDSVAFPEQDGSPPGLRVTVKLGGSWLQTLEASGCVLSQELFQQRAQEAAATQLGLKEMPSHCLVHLHKNCIPQYTLGHWQKLESARQFLTAHRLPLTLAGASYEGVAVNDCIESGRQAAVSVLGTEPNS
B7 gave a Km (purified protein; FAD substrate ring A) of 5.63 µM, a kcat (purified protein; FAD substrate ring A) of 0.236 ± 0.0183 s⁻¹ and a kcat/Km (purified protein; FAD substrate ring A) of 42000 M⁻¹ s⁻¹.

B8: human protoporphyrinogen IX oxidase (hPPO) (Homo sapiens; F331T) (protein)
chain: MGRTVVVLGGGISGLAASYHLSRAPCPPKVVLVESSERLGGWIRSVRGPNGAIFELGPRGIRPAGALGARTLLLVSELGLDSEVLPVRGDHPAAQNRFLYVGGALHALPTGLRGLLRPSPPFSKPLFWAGLRELTKPRGKEPDETVHSFAQRRLGPEVASLAMDSLCRGVFAGNSRELSIRSCFPSLFQAEQTHRSILLGLLLGAGRTPQPDSALIRQALAERWSQWSLRGGLEMLPQALETHLTSRGVSVLRGQPVCGLSLQAEGRWKVSLRDSSLEADHVISAIPASVLSELLPAEAAPLARALSAITAVSVAVVNLQYQGAHLPVQGTGHLVPSSEDPGVLGIVYDSVAFPEQDGSPPGLRVTVMLGGSWLQTLEASGCVLSQELFQQRAQEAAATQLGLKEMPSHCLVHLHKNCIPQYTLGHWQKLESARQFLTAHRLPLTLAGASYEGVAVNDCIESGRQAAVSVLGTEPNS
B8 showed a Km (purified protein; FAD substrate ring D) of 3.02 µM, a kcat (purified protein; FAD substrate ring D) of 0.151 ± 0.0127 s⁻¹ and a kcat/Km (purified protein; FAD substrate ring D) of 50200 M⁻¹ s⁻¹.

B9: human protoporphyrinogen IX oxidase (hPPO) (Homo sapiens; F331A) (protein)
chain: MGRTVVVLGGGISGLAASYHLSRAPCPPKVVLVESSERLGGWIRSVRGPNGAIFELGPRGIRPAGALGARTLLLVSELGLDSEVLPVRGDHPAAQNRFLYVGGALHALPTGLRGLLRPSPPFSKPLFWAGLRELTKPRGKEPDETVHSFAQRRLGPEVASLAMDSLCRGVFAGNSRELSIRSCFPSLFQAEQTHRSILLGLLLGAGRTPQPDSALIRQALAERWSQWSLRGGLEMLPQALETHLTSRGVSVLRGQPVCGLSLQAEGRWKVSLRDSSLEADHVISAIPASVLSELLPAEAAPLARALSAITAVSVAVVNLQYQGAHLPVQGAGHLVPSSEDPGVLGIVYDSVAFPEQDGSPPGLRVTVMLGGSWLQTLEASGCVLSQELFQQRAQEAAATQLGLKEMPSHCLVHLHKNCIPQYTLGHWQKLESARQFLTAHRLPLTLAGASYEGVAVNDCIESGRQAAVSVLGTEPNS
With B9 the Km (purified protein; FAD substrate ring D) was 6.60 µM, the kcat (purified protein; FAD substrate ring D) was 0.0727 ± 0.0065 s⁻¹ and the kcat/Km (purified protein; FAD substrate ring D) was 11000 M⁻¹ s⁻¹.

— paper PMC3720618, “Computational and Experimental Insights into the Mechanism of Substrate Recognition and Feedback Inhibition of Protoporphyrinogen Oxidase” (PLoS ONE, 2013)
